In publication PMC12392934, “TCP19 regulates nitrogen‐dependent sheath blight susceptibility by modulating nitrogen uptake and signalling in rice”:

T1: GST-PIL15 (Oryza sativa, UniProt Q0JNI9 1-637)
T1 sequence: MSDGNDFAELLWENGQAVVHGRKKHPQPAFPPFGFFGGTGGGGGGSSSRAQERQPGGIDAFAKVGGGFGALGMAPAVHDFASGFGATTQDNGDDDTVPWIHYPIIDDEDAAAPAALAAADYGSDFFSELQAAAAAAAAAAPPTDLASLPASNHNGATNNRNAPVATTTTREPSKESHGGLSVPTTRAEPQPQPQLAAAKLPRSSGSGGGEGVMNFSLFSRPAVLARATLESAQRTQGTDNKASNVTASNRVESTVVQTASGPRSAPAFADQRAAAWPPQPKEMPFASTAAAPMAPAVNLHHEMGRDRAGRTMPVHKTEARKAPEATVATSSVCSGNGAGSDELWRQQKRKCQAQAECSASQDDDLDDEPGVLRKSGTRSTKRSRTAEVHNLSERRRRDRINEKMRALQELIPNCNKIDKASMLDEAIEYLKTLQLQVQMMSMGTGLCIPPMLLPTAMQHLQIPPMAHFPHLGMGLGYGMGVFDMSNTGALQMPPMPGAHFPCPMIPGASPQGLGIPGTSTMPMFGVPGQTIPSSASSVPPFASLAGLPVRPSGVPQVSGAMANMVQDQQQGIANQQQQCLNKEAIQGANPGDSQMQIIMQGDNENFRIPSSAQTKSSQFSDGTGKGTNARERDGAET

B1: pAMT1;2-PBE (dsDNA)
DNA 1: ACCAAAACACATGAAATCCT
DNA 2: AGGATTTCATGTGTTTTGGT
B2: pDEP1-PBE (dsDNA)
DNA 1: GATGCACACATGAAGATCGT
DNA 2: ACGATCTTCATGTGTGCATC
B3: pNRT1.1B-PBE (dsDNA)
DNA 1: ACACACACATGTGTTGTAAT
DNA 2: ATTACAACACATGTGTGTGT

molecular target: T1, GST-PIL15; assay: EMSA; Chemiluminescent EMSA kit (Thermo Fisher); buffer, salt, pH and temperature not stated; settings: protein: recombinant; tags: N-terminal GST (pGEX-5X-1); chain copies: 2; label: biotin (ends); blunt

Row | Binder | binding result
1 | B1 | binds
2 | B2 | binds
3 | B3 | binds
